According to the supplement of paper PMC10201428:
± gives the standard deviation of the averaged measurements.

Experiments:
[1] = test system: VchCAST RNA-guided transposition machinery (E. coli BL21(DE3) host, lacZ target); test: relative integration efficiency (T-LR orientation) vs wild-type transposon end (log2 (normalized fold change)); transposon end mutated: left end; higher = more efficient transposition
In short: (§1)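 A T7-driven effector plasmid encoding a CRISPR array, tniQ-cas8-cas7-cas6 and tnsA-tnsB-tnsC was co-transformed into E. coli BL21(DE3) together with a pUC57 mini-transposon donor holding barcoded pools of 1549 left-end or 1849 right-end variants. Transformants were plated with 0.1 mM IPTG at 37°C for 18 h. Illumina sequencing of PCR-amplified input plasmids and genomic integration junctions gave barcode abundances, and relative integration efficiency is their output/input fold change, normalised to reference barcodes and log-transformed.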

[2] = test system: VchCAST RNA-guided transposition machinery (E. coli BL21(DE3) host, lacZ target); test: relative integration efficiency (T-RL orientation) vs wild-type transposon end (log2 (normalized fold change)); transposon end mutated: left end; higher = more efficient transposition
In short: as §1

Sequence | relative integration efficiency (log2) [1] | relative integration efficiency (log2) [2]
AATGTTGTTGATGCAACCATAAAGTGATATTTGCTAGCATTGTACCTAGGACTGAGCTAGCCATAAACAACCATATATTGATATCTCACAAAACAACCATAAGTTGATATTTTTGTGAATCGAGTATTTCAGCAAAACTACTGCAGTAAGAA | -4.41 ± 1.3 | -3.5 ± 0.79
AATGTTGTTGATGCACCCATAAATTGATATTGCATAATTATTTATAATCAGCAACTTAACCACAAAACACCCATAAATTGATAATTAACAAAAGTTGGTATTCAACTATAAAATGTGAATCGAGTATTTCAGCAAAACTACTGCAGTAAGAA | -1.55 ± 1.2 | -3.57 ± 1.4
AATGTTGTTGATGCAACCATAAAGTGATATTTAATAATTATTTATCAACCATATATTGATATCTCAATCAGCAACTTAACCACAAAAACAAAACAACCATAAGTTGATATTTTTGTGAATCGAGTATTTCAGCAAAACTACTGCAGTAAGAA | -2.91 ± 2.7 | -4.61 ± 1.4
AATGTTGTTGATGCAACCATAAAGTGATATTTACAACCATATATTGATATCTCACACAACCATAAGTTGATATTTTTGTGAATCGAGTATTTCAGCAAAACTACTGCAGTAAGAAAGTTACTTCGTGGTATGGGAGGATCAAGGAGCCAATA | 3.33 ± 0.87 | -2.53 ± 0.78
AATGTTGTTGATGCAACCATAAAGTGATATTTAATAACTTCGTATAGTATACATTATACGAAGTTATCAACCATATATTGATATCTCACAAAACAACCATAAGTTGATATTTTTGTGAATCGAGTATTTCAGCAAAACTACTGCAGTAAGAA | -4.118 ± 0.013 | -2.92 ± 1
AATGTTGTTGATGCAACCATAAAGTGATATTTAATAATTATTTATAATCAGCAACTTAACCACAAAAACCAACGCGCGGTCGCGAGAACAAAAACCAACGCCCTGTCGCGGGCTGTGAATCGAGTATTTCAGCAAAACTACTGCAGTAAGAA | -4.56 ± 2.1 | -6.97 ± 1.6
AATGTTGTTGATGCAACCATAAAGTGATATTTAATAATTATTTATAATCAGCAACTTAACCACAAAACAACCATATATTGATCGAGACACCCCACCAACGCCTGGTCGCGGGGGTGTCCGATCTGATTTCAGCAAAACTACTGCAGTAAGAA | -2.14 ± 1.3 | -3.99 ± 1.6
AATGTTGTTGATGCAACCATAAAGTGATATTTAATAATTATTTATAATCAGCAACTTAACCACAAAACAACCATATATTGATATCTCACAAAACAACCATAAGTTGAGCGGGGGTGTCCGATCTGATTTCAGCAAAACTACTGCAGTAAGAA | -1.81 ± 0.51 | -1.32 ± 0.58
AATGTTGTTGATGCAACCATAAAGTGATATTTAATAACTTCGTATAATGTATCGTATACGAACGGTACAACCATATATTGATATCTCACAAAACAACCATAAGTTGATATTTTTGTGAATCGAGTATTTCAGCAAAACTACTGCAGTAAGAA | -4.18 ± 0.64 | -3.32 ± 0.82
AATGTTGTTGATGCAACCATAAAGTGATATTTAATAATTATTTATAATCAGCAACTTAACCACAAAACAACCATATATTGATATCTCACAAAACAACCATAAGTTGATATTGTGAATCGAGTATTTCAGCAAAACTACTGCAGTAAGAAAGT | -0.0935 ± 0.19 | -0.306 ± 0.15
AATGTTGTTGATGCAACCATAAAGTGATATTTAATAATTATTTATAATCAGCAACTTAACCACAAAACAACCATATATTGATATCTCACAAAACAACCATACTGGTCGCGGGGGTGTCCGATCTGATTTCAGCAAAACTACTGCAGTAAGAA | -0.966 ± 1.7 | -2.24 ± 0.99
AATGTTGTTGATGCAACCATAAAGTGATATTTAATAATCAACTGTATATAAATACAGTTCCACAAAACAACCATATATTGATATCTCACAAAACAACCATAAGTTGATATTTTTGTGAATCGAGTATTTCAGCAAAACTACTGCAGTAAGAA | -5.77 ± 0.6 | -4.85 ± 1.1
AATGTTGTTGATGCAACCATAAAGTGATATTTAATAATTATTTATAATCAGCAACTTAACCACAAAACAACCATATATTGATATCTCACAAAACAACCATAAGTTGATATGGGGTGTCCGATCTGATTTCAGCAAAACTACTGCAGTAAGAA | -0.611 ± 0.81 | -0.33 ± 0.14
AATGTTGTTGATGCAACCATAAAGTGATTAAATATAATTATTTATAATCAGCAACTTAACCACAAAACAACCATATATTGATTAGAGACAAAACAACCATAAGTTGATTAAAATGTGAATCGAGTATTTCAGCAAAACTACTGCAGTAAGAA | -1.1 ± 0.76 | -2.17 ± 0.87
AATGTTGTTGATGCAACCATAAAGTGATATTTAATAATTATTTATAATCAGCAACTTAAAACACCCCACCAACGCGCGGTCGCGAGACACCCCACCAACGCCTGGTCGCGGGGGTGTCCGATCTGATTTCAGCAAAACTACTGCAGTAAGAA | -3.63 ± 1.1 | -5.87 ± 1.1
AATGTTGTTGATGCAACCATAAAGTGATATTTAATAACTTCGTATAGGATACTTTATACGAAGTTATCAACCATATATTGATATCTCACAAAACAACCATAAGTTGATATTTTTGTGAATCGAGTATTTCAGCAAAACTACTGCAGTAAGAA | -3.99 ± 1.5 | -3.72 ± 1.3

Sequence | relative integration efficiency (log2) [1] | relative integration efficiency (log2) [2]
AATGTTGTTGATGCAACCATAAAGTGATATTTAATAACAACCATATATTGATATCTCACAAAACAACCATAAGTTGATATTTTTTATTTATAATCAGCAACTTAACCACAAAATGTGAATCGAGTATTTCAGCAAAACTACTGCAGTAAGAA | -1.89 ± 1 | -3.74 ± 0.68
AATGTTGTTGATGCAACCATAAAGTGATATTTAATAATTATCAACCATAAAGTGATATTTAACTTAACAACCATATATTGATATCTCACAAAACAACCATAAGTTGATATTTTTGTGAATCGAGTATTTCAGCAAAACTACTGCAGTAAGAA | -4.24 ± 1.2 | -3.5 ± 0.95
AATGTTGTTGAAACAACCATAAAGTGATAACAACGAATCAATTAAAATCATAGGCTTAATCGAAAAACAACCATATCTTGATATCGCACAAAACAACCATAAGTTGATATTTTTGTGAATCGAGTATTTCAGCAAAACTACTGCAGTAAGAA | -0.526 ± 0.33 | -0.51 ± 0.3
AATGTTGTTGATGCAACCATAAAGTGATATTTAATAATTATTTATAATCAGCAACTTAACCACAAAACAACCATAAGTTGATATTTTACAAAAGTTGGTATTCAACTATAAAATGTGAATCGAGTATTTCAGCAAAACTACTGCAGTAAGAA | -0.485 ± 0.68 | -2.49 ± 1.1
AATGTTGTTGATGCAACCATAAAGTGATAGGGCCGCCGGCGGGCGCCGACTACCAGGCCAACACCCCACCAACGCGCGGTCGCGAGACACCCCACCAACGCCTGGTCGCGGGGGTGTCCGATCTGATTTCAGCAAAACTACTGCAGTAAGAA | -5.19 ± 2.5 | -7.44 ± 1.6
AATGTTGTTGATGCAACCATACCTGTCGCGGGCCGCCGGCGGGCGCCGACTACCAGGCCAACACCCCACCAACGCGCGGTCGCGAGACACCCCACCAACGCCTGGTCGCGGGGGTGTCCGATCTGATTTCAGCAAAACTACTGCAGTAAGAA | < -10 | < -10
AATGTTGTTGATGCAACCATAAAGTGATATTTAGGCAGTGAGCGCAACGCAATTCTTAACCACAAAACAACCATATATTGATATCTCACAAAACAACCATAAGTTGATATTTTTGTGAATCGAGTATTTCAGCAAAACTACTGCAGTAAGAA | -3.58 ± 0.71 | -4.22 ± 1.2
AATGTTGTTGATGCAACCATATTCACATATTTAATAATTATTTATAATCAGCAACTTAACCACAAAACAACCATAATAACATATCTCACAAAACAACCATATCAACATATTTTTGTGAATCGAGTATTTCAGCAAAACTACTGCAGTAAGAA | < -10 | -7.41 ± 0.33
AATGTTGTTGATGCAACCATAAAGTGATATTTAATAATTATTTATAATCAGCAACTTAACCACAAAACAACCATATATTGATATCTCACAAAACAACCATAAGTTTCGCGGGGGTGTCCGATCTGATTTCAGCAAAACTACTGCAGTAAGAA | -2.11 ± 1.5 | -2.22 ± 0.95
AATGTTGTTGATGCAACCATAAAGTGTATAAATATAATTATTTATAATCAGCAACTTAACCACAAAACAACCATATATTGTATAGAGACAAAACAACCATAAGTTGTATAAAATGTGAATCGAGTATTTCAGCAAAACTACTGCAGTAAGAA | -3.62 ± 1.7 | -4.69 ± 1.2
AATGTTGTTGATGCAACCATAAAGTGATATTTAATAATTATTTATAATCAGCAACTTAACCACAAAACAACCATATATTGATATCTCACAAAACACAACGCCTGGTCGCGGGGGTGTCCGATCTGATTTCAGCAAAACTACTGCAGTAAGAA | -0.789 ± 1.1 | -2.63 ± 1.3
AATGTTGTTGATGCAACCATAAAGTGATATTTAATAATTATTTATAATCAGCAACTTAACCACAAAACAACCATATATTGATATCTCACAAAACAACCATAAGTTGATAGGGGGTGTCCGATCTGATTTCAGCAAAACTACTGCAGTAAGAA | -0.256 ± 0.057 | -0.795 ± 0.62
AATGTTGTTGATGCAACCATAAAGTGATATTTACAACCATATATTGATATCTCTCACAACCATAAGTTGATATTTTTGTGAATCGAGTATTTCAGCAAAACTACTGCAGTAAGAAAGTTACTTCGTGGTATGGGAGGATCAAGGAGCCAATA | 3.04 ± 0.96 | -2.79 ± 0.97
AATGTTGTTGATGCAACCATAAGTTGATATTTTATAATTATTTATAATCAGCAACTTAACCACAAAACACCCATAAATTGATAATTAACAAAAGTTGGTATTCAACTATAAAATGTGAATCGAGTATTTCAGCAAAACTACTGCAGTAAGAA | -0.777 ± 0.9 | -2.37 ± 1.2
AATGTTGTTGATGCAACCATAAAGTGATATTTAACAACCATATATTGATATCTCTAATTATTTATAATCAGCAACTTAACCACAAAAACAAAACAACCATAAGTTGATATTTTTGTGAATCGAGTATTTCAGCAAAACTACTGCAGTAAGAA | -0.167 ± 0.77 | -2.13 ± 0.82
